Measured values from patent US20150018233A1 (FRED HUTCHINSON CANCER RESEARCH CENTER, published 2015).

T1: M2 muscarinic acetylcholine receptor (M2AchR), rat (rat, UniProt P10980 1-466)
T1 sequence (looked up): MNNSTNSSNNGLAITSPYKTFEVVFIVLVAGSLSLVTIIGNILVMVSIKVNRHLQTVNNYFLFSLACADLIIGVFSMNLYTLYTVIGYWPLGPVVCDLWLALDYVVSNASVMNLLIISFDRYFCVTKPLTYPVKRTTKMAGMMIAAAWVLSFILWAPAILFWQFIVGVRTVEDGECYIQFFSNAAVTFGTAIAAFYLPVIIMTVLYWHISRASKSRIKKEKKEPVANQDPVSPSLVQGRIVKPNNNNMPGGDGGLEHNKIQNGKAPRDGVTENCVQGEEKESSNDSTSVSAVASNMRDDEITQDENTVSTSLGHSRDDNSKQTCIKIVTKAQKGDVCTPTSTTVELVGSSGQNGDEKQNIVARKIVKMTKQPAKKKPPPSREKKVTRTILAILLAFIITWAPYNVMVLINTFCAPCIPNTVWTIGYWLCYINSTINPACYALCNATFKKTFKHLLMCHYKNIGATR

B1: Gαs-Gα15-13 (SEQ ID NO: 7) (other)
chain: MGCLGNSKTEDQRNEEKAQREANKKIEKQLQKDKQVYRATHRLLLLGAGESGKSTIVKQMRILHVNGFNGEGGEEDVPDYASNSDGEKATKVQDIKNNLKEAIETIVAAMSNLVPPVELANPENQFRVDYILSVMNVPNFDFPPEFYEHAKALWEDEGVRACYERSNEYQLIDCAQYFLDKIDVIKQADYVPSDQDLLRCRVLTSGIFETKFQVDKVNFHMFDVGGQRDERRKWIQCFNDVTAIIFVVASSSYNMVIREDNQTNRLQEALNLFKSIWNNRWLRTISVILFLNKQDLLAEKVLAGKSKIEDYFPEFARYTTPEDATPEPGEDPRVTRAKYFIRDEFLRISTASGDGRHYCYPHFTCAVDTENIRRVFNDCRDSVLARYLDEINLL
B2: Gαs-Gαi-13 (SEQ ID NO: 5) (other)
chain: MGCLGNSKTEDQRNEEKAQREANKKIEKQLQKDKQVYRATHRLLLLGAGESGKSTIVKQMRILHVNGFNGEGGEEDVPDYASNSDGEKATKVQDIKNNLKEAIETIVAAMSNLVPPVELANPENQFRVDYILSVMNVPNFDFPPEFYEHAKALWEDEGVRACYERSNEYQLIDCAQYFLDKIDVIKQADYVPSDQDLLRCRVLTSGIFETKFQVDKVNFHMFDVGGQRDERRKWIQCFNDVTAIIFVVASSSYNMVIREDNQTNRLQEALNLFKSIWNNRWLRTISVILFLNKQDLLAEKVLAGKSKIEDYFPEFARYTTPEDATPEPGEDPRVTRAKYFIRDEFLRISTASGDGRHYCYPHFTCAVDTENIRRVFNDCRDVIIKNNLKDCGLF
B3: Gαs-Gαz-13 (SEQ ID NO: 6) (other)
chain: MGCLGNSKTEDQRNEEKAQREANKKIEKQLQKDKQVYRATHRLLLLGAGESGKSTIVKQMRILHVNGFNGEGGEEDVPDYASNSDGEKATKVQDIKNNLKEAIETIVAAMSNLVPPVELANPENQFRVDYILSVMNVPNFDFPPEFYEHAKALWEDEGVRACYERSNEYQLIDCAQYFLDKIDVIKQADYVPSDQDLLRCRVLTSGIFETKFQVDKVNFHMFDVGGQRDERRKWIQCFNDVTAIIFVVASSSYNMVIREDNQTNRLQEALNLFKSIWNNRWLRTISVILFLNKQDLLAEKVLAGKSKIEDYFPEFARYTTPEDATPEPGEDPRVTRAKYFIRDEFLRISTASGDGRHYCYPHFTCAVDTENIRRVFNDCRDVIIQNNLKYIGLC

Tests used:
[1] = target: T1, M2 muscarinic acetylcholine receptor …; assay: cell-based or functional assay
[2] = target: sweet receptor heterodimer (T1 R2/T1 R3); assay: cell-based or functional assay

Binder	increase in SEAP activity in response to the 10 uM acetylcholine ligand [1] [fold]	increase in SEAP activity in response to 10 uM acetylcholine (CRE-SEAP reporter, HEK-293) [1] [fold]	increase in SEAP activity, cells transiently expressing the chimera (10 uM acetylcholine) [1] [fold]	increase in SEAP activity (5 mM saccharin) [2] [fold]
B1	~2			
B2		10	~10	~2
B3	~2			
